According to US20140112930A1 (published 2014):

Key:
Biotin-hBA2 [1] = molecular target: T1, Biotin-hBA2 (human, biotinylated (sites not given)); assay: blocking ELISA, biotin-hBA2 to hTie-2-His, mean of two experiments
T1 construct: hBA2 consists of two dimers; also called biotinylated hBA2; human bow-Ang2
Method: (§1) The plate was then blocked with PBS (Irvine Scientific, Santa Ana, Calif.) containing 0.5% BSA (Sigma-Aldrich Corp., St. Louis, Mo.) for one hour at room temperature. […] Human, mouse or monkey Ang-2FD protein conjugated to human IgG (Ang-2FD-hFc) were added to final concentrations of 2 nM, 8 nM, or 2 nM respectively and incubated for one hour at room temperature. The antibody/Ang-2FD-Fc mixture was then added to the plate containing hTie-2-mFc and incubated for one hour at room temperature. Detection of Ang-2FD-hFc bound to hTie-2-mFc protein was determined with Horse-Radish Peroxidase (HRP) conjugated to a-human IgG antibody (Jackson Immuno Research Lab, West Grove, Pa.) and developed by standard colorimetric response using tetramethylbenzidine (TMB) substrate (BD Biosciences, San Jose, Calif.). Absorbance was read at OD₄₅₀ for 0.1 sec.
For this experiment, human Tie-2 conjugated to a histidine tag (hTie-2-His; SEQ ID NO:526) was used in a similar fashion to the hTie-2-mFc described above. Antibody concentrations from 5 nM were serially diluted three-fold. […] An average IC₅₀ value for each antibody was calculated based on two separate experiments.

Mouse Ang-2FD-hFc = molecular target: T2, Mouse Ang-2FD-hFc (mouse (Mus musculus)); assay: blocking ELISA, 16.67 nM antibody, Ang-2FD-hFc to coated hTie-2-mFc
T2 construct: also called dimeric mouse Ang-2FD
Method: as §1

Human Ang-2FD-hFc = molecular target: T3, Human Ang-2FD-hFc (human); assay: as above
T3 construct: also called dimeric human Ang-2FD; human Ang-2FD protein conjugated to human IgG
Method: as §1

Monkey Ang-2FD-hFc = molecular target: T4, Monkey Ang-2FD-hFc (monkey (Macca fascicularis)); assay: as above
T4 construct: also called dimeric monkey Ang-2FD
Method: as §1

Biotin-hBA2 [2] = molecular target: T1, Biotin-hBA2; assay: blocking ELISA, biotin-hBA2 to hTie-2

T2 sequence (chain, as listed by the source limits assumed): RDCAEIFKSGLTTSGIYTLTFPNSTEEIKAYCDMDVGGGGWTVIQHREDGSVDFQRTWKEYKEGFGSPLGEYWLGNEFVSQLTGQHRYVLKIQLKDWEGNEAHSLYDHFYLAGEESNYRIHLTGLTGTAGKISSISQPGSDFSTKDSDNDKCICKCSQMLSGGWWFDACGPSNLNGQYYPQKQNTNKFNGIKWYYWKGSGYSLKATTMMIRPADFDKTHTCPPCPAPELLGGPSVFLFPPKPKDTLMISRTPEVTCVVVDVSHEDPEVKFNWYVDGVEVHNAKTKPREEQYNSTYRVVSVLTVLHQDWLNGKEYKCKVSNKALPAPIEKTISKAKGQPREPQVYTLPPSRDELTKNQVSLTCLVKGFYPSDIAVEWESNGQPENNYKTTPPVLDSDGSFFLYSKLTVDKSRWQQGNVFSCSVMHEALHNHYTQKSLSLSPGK
T3 sequence (chain, as listed by the source limits assumed): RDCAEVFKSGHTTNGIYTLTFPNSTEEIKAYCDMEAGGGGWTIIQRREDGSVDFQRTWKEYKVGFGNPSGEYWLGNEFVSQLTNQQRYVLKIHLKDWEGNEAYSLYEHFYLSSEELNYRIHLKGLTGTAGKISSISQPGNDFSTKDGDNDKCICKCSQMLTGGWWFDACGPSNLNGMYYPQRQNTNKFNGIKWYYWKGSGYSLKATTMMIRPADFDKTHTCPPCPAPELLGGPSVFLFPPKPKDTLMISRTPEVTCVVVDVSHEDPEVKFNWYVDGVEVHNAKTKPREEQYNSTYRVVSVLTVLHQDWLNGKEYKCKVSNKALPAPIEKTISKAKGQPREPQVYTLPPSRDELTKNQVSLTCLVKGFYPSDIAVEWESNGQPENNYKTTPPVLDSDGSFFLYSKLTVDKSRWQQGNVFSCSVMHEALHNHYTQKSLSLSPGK
T1 sequence (chain, as listed by the source limits assumed): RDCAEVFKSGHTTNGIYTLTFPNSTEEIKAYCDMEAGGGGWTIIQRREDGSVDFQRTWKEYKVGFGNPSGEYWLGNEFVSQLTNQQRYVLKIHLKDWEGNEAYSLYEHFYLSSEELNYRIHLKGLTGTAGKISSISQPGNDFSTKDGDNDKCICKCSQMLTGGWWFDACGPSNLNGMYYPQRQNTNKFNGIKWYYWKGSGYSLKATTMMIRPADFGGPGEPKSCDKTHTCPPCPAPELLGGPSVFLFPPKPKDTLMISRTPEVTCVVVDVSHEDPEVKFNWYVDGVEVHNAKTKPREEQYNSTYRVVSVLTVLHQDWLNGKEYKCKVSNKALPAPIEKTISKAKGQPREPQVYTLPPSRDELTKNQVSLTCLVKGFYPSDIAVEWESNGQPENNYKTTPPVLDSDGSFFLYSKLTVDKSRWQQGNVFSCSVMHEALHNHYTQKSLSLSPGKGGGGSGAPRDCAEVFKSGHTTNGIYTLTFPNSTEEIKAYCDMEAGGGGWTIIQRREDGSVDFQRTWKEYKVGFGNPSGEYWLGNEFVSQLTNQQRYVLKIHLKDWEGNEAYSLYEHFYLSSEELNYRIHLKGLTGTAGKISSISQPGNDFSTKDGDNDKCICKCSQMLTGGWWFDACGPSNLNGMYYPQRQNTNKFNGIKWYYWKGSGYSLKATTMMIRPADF
T4 sequence (chain, as listed by the source limits assumed): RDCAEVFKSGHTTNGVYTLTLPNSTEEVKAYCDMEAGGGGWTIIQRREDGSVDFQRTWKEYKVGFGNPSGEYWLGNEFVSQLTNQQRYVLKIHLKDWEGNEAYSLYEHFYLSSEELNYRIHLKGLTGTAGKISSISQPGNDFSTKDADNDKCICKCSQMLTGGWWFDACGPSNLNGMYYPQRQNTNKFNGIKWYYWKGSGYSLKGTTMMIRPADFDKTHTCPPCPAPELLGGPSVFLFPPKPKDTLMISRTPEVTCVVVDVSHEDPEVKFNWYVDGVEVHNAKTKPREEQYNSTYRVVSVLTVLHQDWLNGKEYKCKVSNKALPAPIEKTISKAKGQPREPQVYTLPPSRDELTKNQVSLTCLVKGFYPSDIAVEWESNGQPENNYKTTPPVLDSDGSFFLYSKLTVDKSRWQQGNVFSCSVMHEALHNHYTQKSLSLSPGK

Binder | IC50 (Biotin-hBA2 [1]) [pM] | Percent Blocking of Ang-2FD Binding to Tie-2 (Mouse Ang-2FD-hFc) [%] | Percent Blocking of Ang-2FD Binding to Tie-2 (Human Ang-2FD-hFc) [%] | Percent Blocking of Ang-2FD Binding to Tie-2 (Monkey Ang-2FD-hFc) [%] | IC50 (Biotin-hBA2 [2]) [pM]
H1H691P (antibody, human IgG1, V domains shown, Human IgG1) VH: EVQLVESGGGLVQPGRSLRLSCAASGFTFDDYAMHWVRQAPGKGLEWVSGISWNSGDIGYADSVKGRFTISRDNAKNSLYLQMNSLRAQDTALYYCAKAYGDYYYFYGMDVWGQGTTVTVS VL: EIVLTQSPGTLSLSPGERATLSCRASQSVSSSYLAWYQQKPGQAPRLLIFSASSRATGIPDRFSGSGSGTDFTLTISRLEPEDFAVYYCQQYDNSLTFGGGTKVEIK |  | 96.7 | 97.4 | 99.8 | 
H1H704P (antibody, V domains shown, Human IgG1) VH: QVQLVESGGDVVQPGRSLRLSCAASGFTFSSYGMHWVRQAPGKGLEWVAIIWYDGSNKYYADSVKGRFTISRDNSKNTLYLQMNSLRVEDTAVYSCARDFSISSRHFDYWGQGTLVTVSS VL: DIQMTQSPSSLSASVGDRVTITCRASQAINNYLAWFQQKPGKAPKSLIYATSNLQSGVPSQFSGSGSGTDYTLTISSLQPEDFATYYCQQYYIYPITFGQGTRLEIK |  | 41.8 | 97 |  | 56
H1H695P (antibody, human IgG1, V domains shown, Human IgG1) VH: QVQLVESGGGVVQPGRSLRLSCAASGFTFSSYGMHWVRQAPGKGLEWVAVMWYDETNKYYADSVKGRFTISRDNSKNTLYLQMNSLRAEDTAVYYCARYSGYEDYYHGMDVWGQGTTVTVS VL: EIVMTQSPATPSVSPGERATLSCRASQSISSNLAWYQQKPGQAPRLLIYGASTRATGIPARFSGSGSGTEFTLTISSLQSEDFAVYYCQHYNNWITFGQGTRLEIK |  | 97.6 | 98.4 |  | 59
H1M749N (antibody, V domains shown, also called H2M749N) VH: QVQLVESGGGVVQPGRSLRLSCAASGFTFSSYGMHWVRQAPGKGLEWVAVIWYDEFNKYYADSVKGRFTISRDNSKNTLYLQMNSLRAEDTAVYYCARERESGYSYGFDYWGQGTLVTVSS VL: EIVMTQSPATLSVSPGERATLSCRAGQSVSSNLAWYQQKPGQAPRLLIYGASTRATGIPARFSGSGSGTEFTLTISSLQSEDFAVYYCQQYNNWWTFGQGTKVEIK | 6.43 |  |  |  | 

Now from value to binder:

IC50 (Biotin-hBA2 [1]) [pM] | Percent Blocking of Ang-2FD Binding to Tie-2 (Mouse Ang-2FD-hFc) [%] | Percent Blocking of Ang-2FD Binding to Tie-2 (Human Ang-2FD-hFc) [%] | Percent Blocking of Ang-2FD Binding to Tie-2 (Monkey Ang-2FD-hFc) [%] | IC50 (Biotin-hBA2 [2]) [pM] | Binder
11 |  |  |  |  | H2M743N (antibody, V domains shown, also called H1M743N) VH: EVQLLESGGGLVQPGGSLRLSCAASGFTFRKYAMSWVRQAPGKGLEWVSVISVSGGNTYYADSVKGRFTISRDNSKNTLYLQLNSLRAEDTAVYYCAKDLTDIVLMVYVDYWGQGTLVTVSS VL: DIQMTQSPSSVSASVGDRVTITCRASQDIDRWLAWYQQKPGKAPKLLIYAASSLQSGVPSRFSGSGSGTDFTLTISTLQPEDFATYYCQQANSLPFTFGGGTKVEIK
9.65 |  |  |  |  | H2M742N (antibody, V domains shown, also called H1M742N) VH: DVQLLESGGDLVQPGGSLRLSCEASGFTFRNYVMIWVRQAPGKGLEWVSGISNSGGTTHYTDSVKGRFTISRDNSKNTLYLQINSLRAEDTAVYYCAKGYLDTSLIEGNWFDPWGQGTLVTVSS VL: NIVMTQSPLSLPVTPGEPASISCRSSQSLLHSNGFNYLNWFLQKPGQSPQLLIYLGSNRASGVPDKFSGSGSGTDFTLNINRVEAEDVGIYFCMQTLQTPLTFGGGTKVEIK
8.83 |  |  |  |  | H2M750N (antibody, V domains shown, also called H1M750N; H1M750) VH: QVKLVESGGGVVQPGRSLRVSCAASGFTFSSYGMHWVRQAPGKGLEWLAIIWYDGDNKYYSDSVKGRFTISRDNSKNTLYLQMNSLRAEDTAEYYCVRDASIASRFLDYWGQGTLVTVSS VL: DIQMTQSPSSLSASIGDRVTITCRATQDINNYLAWFQQKPGKAPKSLIYATSNLQSGVPSKFSGSGSGTDYTLTISSLQPEDFSTYYCQQYHSYPLTFGGGTKVEIK
11.4 |  |  |  |  | H2M744N (antibody, V domains shown, also called H1M744N; H1M744) VH: QVQLVQSGVEVKKPGASVKVSCKTSGYTFSNNGFSWVRQAPGQGLEWLGWISGYNGNTNYAQKFQGRVTMTTDTSTSTAYMELRTLRSDDTAVYYCARDQDYSNFHWLDPWGQGTLVTVAS VL: DIQMTQSPSSVSASVGDRVIITCRASQGLSSWLAWYQQKPGTAPKLLIHSASSLQTGVPSRFSGSGSGTEFALTINSLQPEDFGTYYCQQANSFPLTFGGGTRVEIK
